We go through 3 molecules from PMC12205649.

For one assay, the target named is E. coli CsgC (E. coli) (UniProt P52107).
Assay [1] has as its target E. coli CsgA, freshly purified monomer (E. coli) (UniProt P28307). The assay can be described thus: native MS; ion mobility-mass spectrometry (nESI, Synapt G2); CsgA and CsgC each diluted to 20 μM and mixed 1:1 in 20 mM ammonium acetate pH 7.4, incubated at 37 °C, time points 0, 3, 6 and 23 h.
Assay [2] deals with E. coli CsgA fibrils (sonicated amyloid fibres of WT CsgA) (E. coli) (UniProt P28307). Put plainly: SPR; BIAcore 3000, CM5 chip; sonicated CsgA fibrils amine-coupled at 1300 RU; gel-filtered CsgC injected 5 min at 4 to 0.25 μM (two-fold dilutions); phosphate buffer pH 7.5, 0.05% Tween, 25 °C; fitted with Scrubber2.
Assay [3] has as its target T1, E. coli CsgC (E. coli), P52107.
T1 chain: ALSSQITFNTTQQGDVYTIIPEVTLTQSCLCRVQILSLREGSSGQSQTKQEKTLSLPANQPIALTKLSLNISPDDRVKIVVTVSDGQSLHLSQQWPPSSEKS
Put plainly: native MS; ion mobility-mass spectrometry (nESI, Synapt G2); CsgA and CsgC each diluted to 20 μM and mixed 1:1 in 20 mM ammonium acetate pH 7.4, incubated at 37 °C, time points 0, 3, 6 and 23 h. The settings on record: remark: other sources report otherwise.

In the assay with E. coli CsgC (E. coli), “E. coli CsgA, freshly purified monomer (from UniProt P28307 21-151) (natural protein)” came in with a ThT binding assay: increase in lag time of CsgA eluted from the CsgC-linked column compared with CsgA eluted from the Tris-quenched column of 51 min and a ThT binding assay: increase in time to half maximum ThT fluorescence of CsgA eluted from the CsgC-linked column compared with CsgA eluted from the Tris-quenched column of 52 min.

For the molecule “E. coli CsgC (from UniProt P52107 9-110) (natural protein)”, in assay [1], the stoichiometry N was found to be 1. Moreover, in assay [2], the Kd came out at 360 nM and the koff was 0.00118 s⁻¹.

B1: E. coli CsgC, P52107 9-110 (natural protein)
chain: ALSSQITFNTTQQGDVYTIIPEVTLTQSCLCRVQILSLREGSSGQSQTKQEKTLSLPANQPIALTKLSLNISPDDRVKIVVTVSDGQSLHLSQQWPPSSEKS
In assay [3], B1 came in with a stoichiometry N of 2.
